{"source": "IntAct's records for PubMed 19966800", "biological_target": "caga_helpy cagA (UniProt P55980)", "sequence (P55980 whole entry)": "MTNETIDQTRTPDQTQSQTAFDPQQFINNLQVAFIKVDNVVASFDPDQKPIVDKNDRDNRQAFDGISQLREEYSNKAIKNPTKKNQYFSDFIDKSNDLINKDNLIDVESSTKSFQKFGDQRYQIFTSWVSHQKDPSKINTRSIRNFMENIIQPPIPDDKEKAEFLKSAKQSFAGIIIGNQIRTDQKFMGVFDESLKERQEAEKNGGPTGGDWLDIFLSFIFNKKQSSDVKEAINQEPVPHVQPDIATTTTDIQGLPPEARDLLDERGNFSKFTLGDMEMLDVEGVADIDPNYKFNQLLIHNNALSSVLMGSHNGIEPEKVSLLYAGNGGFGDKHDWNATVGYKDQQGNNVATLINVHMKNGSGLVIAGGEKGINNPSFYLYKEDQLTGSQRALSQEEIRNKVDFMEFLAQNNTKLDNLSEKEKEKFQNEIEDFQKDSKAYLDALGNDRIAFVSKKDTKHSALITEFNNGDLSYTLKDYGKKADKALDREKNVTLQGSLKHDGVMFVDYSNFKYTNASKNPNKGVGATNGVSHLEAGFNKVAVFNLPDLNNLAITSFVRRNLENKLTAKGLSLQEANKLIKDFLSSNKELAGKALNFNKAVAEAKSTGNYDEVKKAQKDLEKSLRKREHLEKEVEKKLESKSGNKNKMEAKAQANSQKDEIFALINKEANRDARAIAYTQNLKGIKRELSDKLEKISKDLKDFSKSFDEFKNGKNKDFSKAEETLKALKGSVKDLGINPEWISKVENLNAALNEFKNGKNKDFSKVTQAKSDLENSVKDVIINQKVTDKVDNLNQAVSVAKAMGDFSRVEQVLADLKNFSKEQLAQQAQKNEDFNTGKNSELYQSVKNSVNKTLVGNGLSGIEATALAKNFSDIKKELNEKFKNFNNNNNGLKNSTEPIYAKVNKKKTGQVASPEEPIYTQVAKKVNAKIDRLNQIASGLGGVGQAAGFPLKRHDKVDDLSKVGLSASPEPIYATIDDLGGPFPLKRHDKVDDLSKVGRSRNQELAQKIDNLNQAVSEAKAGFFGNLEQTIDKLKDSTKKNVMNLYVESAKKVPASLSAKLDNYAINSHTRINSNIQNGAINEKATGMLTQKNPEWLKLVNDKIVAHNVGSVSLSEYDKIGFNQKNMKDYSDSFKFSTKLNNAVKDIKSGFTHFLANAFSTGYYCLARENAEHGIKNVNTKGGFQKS", "data": [{"substance": "Serine/threonine-protein kinase MARK2 (Homo sapiens), Q7KZI7 E136G;F138G;D139G", "values": [{"measurement": "effect of a mutation on the interaction", "result": "disrupting interaction"}]}]}
